Test results published in publication PMC12005729.
Each block holds one substance with its values, some of them ahead of it.

Key:
Assay in all cases: native gel or EMSA + other: dynamic light scattering; self-assembly into the 24-mer cage; DLS at 25 °C, 1 µM protein in 50 mM Tris-HCl, pH 8, 150 mM NaCl
[1] = target: Fr‐F1 (Fr‐R59F), mutant of recombinant horse spleen apo‐L ferritin (horse)
[2] = target: Fr‐F2 (Fr‐E56F/R59F), mutant of recombinant horse spleen apo‐L ferritin (horse)
[3] = target: Fr‐F4 (Fr‐R52F/E56F/R59F/E63F), mutant of recombinant horse spleen apo‐L ferritin (horse)
[4] = target: Fr‐F5/59A (Fr‐E53F/E56F/E57F/R59A/E60F/E63F), mutant of recombinant horse spleen apo‐L ferritin (horse)
[5] = target: Fr‐F5/59L (Fr‐E53F/E56F/E57F/R59L/E60F/E63F), mutant of recombinant horse spleen apo‐L ferritin (horse)
[6] = target: Fr‐F6 (Fr‐E53F/E56F/E57F/R59F/E60F/E63F), mutant of recombinant horse spleen apo‐L ferritin (horse)

Substance: Fr‐F2 (Fr‐E56F/R59F), mutant of recombinant horse spleen apo‐L ferritin (natural protein)
stoichiometry N [2]: 24

Substance: Fr‐F4 (Fr‐R52F/E56F/R59F/E63F), mutant of recombinant horse spleen apo‐L ferritin (natural protein)
stoichiometry N [3]: 24

Substance: Fr‐F5/59A (Fr‐E53F/E56F/E57F/R59A/E60F/E63F), mutant of recombinant horse spleen apo‐L ferritin (natural protein)
stoichiometry N [4]: 24

Further lines, results first:

stoichiometry N [1]: 24
Substance: Fr‐F1 (Fr‐R59F), mutant of recombinant horse spleen apo‐L ferritin (natural protein)

stoichiometry N [5]: 24
Substance: Fr‐F5/59L (Fr‐E53F/E56F/E57F/R59L/E60F/E63F), mutant of recombinant horse spleen apo‐L ferritin (natural protein)

stoichiometry N [6]: 24
Substance: Fr‐F6 (Fr‐E53F/E56F/E57F/R59F/E60F/E63F), mutant of recombinant horse spleen apo‐L ferritin (natural protein)
